Residue numbers refer to the chain shown, from its start.
B1: H1M724N (antibody, V domains shown)
VH: QVQLVESGGGVVQPGRSLRLSCAASGFTLSNYGMHWVRQAPGKGLEWVAVIWHDGSNTYYADSVKGRFTISRDNSKNTLYLQMNSLRAEDTAVYYCTREGLDFWSGYYPNWFDPWGQGTLVTVSS
VL: DIQMTQSPSSLSASVGDRVTITCRASQGIRNDLGWYQQKPGKAPKRLIYAASNLQGGVPSRFSGSGSGTEFTLTISSLQPEDFAAYYCLQHNIYPLTFGGGTKVEIK
B2: H1M728N (antibody, V domains shown)
VH: EVQLVESGGDLVQPGGSLRLSCTASGFTFSKYWMTWVRQAPGRGLEWVANIKEDGNEKYFLDSVKGRFTISRDNAKDLLFLQMNSLRGEDTAVYYCVRDRGIEVAGPFDYWGQGTLVTVSS
VL: DIQMTQSPSTLSASVGDRVTVTCRASQTIINWLAWYQQKPGKAPKLLISKASSLESGVPSRFSGSGSGTEFTLTISSLQPDDFATYYCQQYNRYWTFGQGTMVEIK
B3: H1H728N (antibody, V domains shown)
VH: B2 VH
VL: B2 VL
B4: H1H730N (antibody, V domains shown)
VH: EVQLVESGGGLVQPGGSLRLSCAASGFAFRSYWMTWVRQAPGKGLEWVANIQQDGNDKYYVDSVKGRFTISRDNAKNSLYLQMNSLRAEDTAVYYCARDTGIAEAGPFDYWGQGTLVTVSS
VL: B2 VL with T20S, V21I, N31S, K45R, S49Y, S76N, M102K
B5: H2M730N (antibody, V domains shown)
VH: B4 VH
VL: B2 VL with T20S, V21I, N31S, K45R, S49Y, S76N, M102K
B6: H1H732N (antibody, V domains shown)
VH: EVQLVESGGGLVRPGGSLRLSCAASGFTFTNAWMSWVRQAPGKGLEWIGQIKSKTDGGTIDYAAPVKGRFTVSRDDSENTLFLQMNSLKTEDTAVYYCAGNWNYVDFDYWGQGTLVTVSS
VL: B1 VL with G28D, N53S, A85T, I93S, L96F, G100P, E105D
B7: H1H742N (antibody, V domains shown)
VH: DVQLLESGGDLVQPGGSLRLSCEASGFTFRNYVMIWVRQAPGKGLEWVSGISNSGGTTHYTDSVKGRFTISRDNSKNTLYLQINSLRAEDTAVYYCAKGYLDTSLIEGNWFDPWGQGTLVTVSS
VL: NIVMTQSPLSLPVTPGEPASISCRSSQSLLHSNGFNYLNWFLQKPGQSPQLLIYLGSNRASGVPDKFSGSGSGTDFTLNINRVEAEDVGIYFCMQTLQTPLTFGGGTKVEIK
B8: H1H743N (antibody, V domains shown)
VH: EVQLLESGGGLVQPGGSLRLSCAASGFTFRKYAMSWVRQAPGKGLEWVSVISVSGGNTYYADSVKGRFTISRDNSKNTLYLQLNSLRAEDTAVYYCAKDLTDIVLMVYVDYWGQGTLVTVSS
VL: DIQMTQSPSSVSASVGDRVTITCRASQDIDRWLAWYQQKPGKAPKLLIYAASSLQSGVPSRFSGSGSGTDFTLTISTLQPEDFATYYCQQANSLPFTFGGGTKVEIK
B9: H1H750N (antibody, V domains shown)
VH: QVKLVESGGGVVQPGRSLRVSCAASGFTFSSYGMHWVRQAPGKGLEWLAIIWYDGDNKYYSDSVKGRFTISRDNSKNTLYLQMNSLRAEDTAEYYCVRDASIASRFLDYWGQGTLVTVSS
VL: DIQMTQSPSSLSASIGDRVTITCRATQDINNYLAWFQQKPGKAPKSLIYATSNLQSGVPSKFSGSGSGTDYTLTISSLQPEDFSTYYCQQYHSYPLTFGGGTKVEIK
B10: H1M732N (antibody, V domains shown)
VH: B6 VH
VL: B1 VL with G28D, N53S, A85T, I93S, L96F, G100P, E105D
B11: H2M742N (antibody, V domains shown)
VH: B7 VH
VL: B7 VL
B12: H2M743N (antibody, V domains shown)
VH: B8 VH
VL: B8 VL
B13: H2M750N (antibody, V domains shown)
VH: B9 VH
VL: B9 VL
B14: H1H693P (antibody, human IgG1, V domains shown)
VH: EVQLVESGGGLVQPGESLRLSCAASGFTFSSYAMSWVRQGPGKGLEWVSSISGSGGTTYYADSVEGRFTISRDNSKNTLYLHMNSLRAEDTAVYYCAKDFLDYSTYLAFDLWGQGTMVTVSS
VL: B8 VL with D28G, D30S, R31S, T77S, L94F, F96R, G100Q

Key:
[1] = target: Mouse Ang-2FD-hFc (mouse (Mus musculus)); test: ELISA; 16.67 nM antibody premixed with Ang-2FD-hFc, binding to coated hTie-2-mFc
[2] = target: Monkey Ang-2FD-hFc (monkey (Macca fascicularis)); test: as above
[3] = target: Human Ang-2FD-hFc (human); test: as above
[4] = target: Dimeric Human Ang-2FD conjugated to human IgG1 (human); test: ELISA, 16.67 nM antibody, Ang-2FD-hFc binding to coated hTie-2-mFc
[5] = target: Dimeric Monkey Ang-2FD conjugated to human IgG1 (monkey (Macca fascicularis)); test: as above
[6] = target: Dimeric Mouse Ang-2FD conjugated to human IgG1 (mouse (Mus musculus)); test: as above
[7] = target: Dimeric Human Ang-2FD conjugated to human IgG1 (human); test: SPR, antibody captured, room temperature
[8] = target: Dimeric Monkey Ang-2FD conjugated to human IgG1 (monkey (Macca fascicularis)); test: SPR, antibody captured, room temperature
[9] = target: Dimeric Mouse Ang-2FD conjugated to human IgG1 (mouse (Mus musculus)); test: SPR, antibody captured, room temperature
[10] = target: Dimeric Human Ang-2FD conjugated to human IgG1 (human); test: SPR, human IgG1 antibody captured
[11] = target: Dimeric Monkey Ang-2FD conjugated to human IgG1 (monkey (Macca fascicularis)); test: SPR, human IgG1 antibody captured
[12] = target: Dimeric Mouse Ang-2FD conjugated to human IgG1 (mouse (Mus musculus)); test: SPR, human IgG1 antibody captured

Chain of Dimeric Mouse Ang-2FD conjugated to human IgG1 (mouse (Mus musculus)) (chain, as listed by the source limits assumed): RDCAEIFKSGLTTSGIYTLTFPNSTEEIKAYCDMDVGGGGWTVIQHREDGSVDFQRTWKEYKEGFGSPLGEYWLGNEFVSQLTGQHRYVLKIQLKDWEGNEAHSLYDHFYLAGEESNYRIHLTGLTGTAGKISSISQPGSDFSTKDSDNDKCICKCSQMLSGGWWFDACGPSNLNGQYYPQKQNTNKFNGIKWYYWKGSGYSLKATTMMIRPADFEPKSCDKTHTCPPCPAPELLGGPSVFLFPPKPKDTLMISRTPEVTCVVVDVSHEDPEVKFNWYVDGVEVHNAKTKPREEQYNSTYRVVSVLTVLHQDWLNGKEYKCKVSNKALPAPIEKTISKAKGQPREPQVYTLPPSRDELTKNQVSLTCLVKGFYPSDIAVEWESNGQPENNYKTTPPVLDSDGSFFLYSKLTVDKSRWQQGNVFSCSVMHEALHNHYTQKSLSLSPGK
Chain of Dimeric Human Ang-2FD conjugated to human IgG1 (human) (chain, as listed by the source limits assumed): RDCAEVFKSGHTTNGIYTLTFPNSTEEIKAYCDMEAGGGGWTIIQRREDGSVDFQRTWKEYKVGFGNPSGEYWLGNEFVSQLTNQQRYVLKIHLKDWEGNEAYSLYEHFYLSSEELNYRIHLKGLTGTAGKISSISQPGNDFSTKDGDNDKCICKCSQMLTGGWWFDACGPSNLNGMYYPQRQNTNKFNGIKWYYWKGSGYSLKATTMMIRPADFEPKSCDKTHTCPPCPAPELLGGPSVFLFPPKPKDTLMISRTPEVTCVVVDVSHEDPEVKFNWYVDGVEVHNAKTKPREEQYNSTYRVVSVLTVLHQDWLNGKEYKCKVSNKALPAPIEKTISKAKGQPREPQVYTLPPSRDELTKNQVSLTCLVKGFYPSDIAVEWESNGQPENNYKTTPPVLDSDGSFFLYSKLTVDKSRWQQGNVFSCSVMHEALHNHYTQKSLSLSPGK
Chain of Dimeric Monkey Ang-2FD conjugated to human IgG1 (monkey (Macca fascicularis)) (chain, as listed by the source limits assumed): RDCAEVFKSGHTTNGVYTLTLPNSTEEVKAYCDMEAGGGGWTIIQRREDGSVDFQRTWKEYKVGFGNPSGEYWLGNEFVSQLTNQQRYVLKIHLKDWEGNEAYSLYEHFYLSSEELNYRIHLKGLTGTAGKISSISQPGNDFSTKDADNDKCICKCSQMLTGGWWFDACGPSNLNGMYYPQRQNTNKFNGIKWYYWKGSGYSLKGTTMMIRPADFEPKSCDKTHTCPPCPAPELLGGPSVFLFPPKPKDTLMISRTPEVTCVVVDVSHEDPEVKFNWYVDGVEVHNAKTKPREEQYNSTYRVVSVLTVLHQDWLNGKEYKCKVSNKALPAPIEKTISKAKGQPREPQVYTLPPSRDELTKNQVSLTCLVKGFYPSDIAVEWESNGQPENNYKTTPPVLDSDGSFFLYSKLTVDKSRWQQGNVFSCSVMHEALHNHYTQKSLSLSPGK

| Molecule | Percent Blocking of Ang-2FD Binding to Tie-2 [1] | Percent Blocking of Ang-2FD Binding to Tie-2 [2] | Percent Blocking of Ang-2FD Binding to Tie-2 [3] | Percent Blocking of Ang-2FD Binding to Tie-2 [4] | Percent Blocking of Ang-2FD Binding to Tie-2 [5] | Percent Blocking of Ang-2FD Binding to Tie-2 [6] | Kd [7] | T1/2 [7] | Kd [8] | T1/2 [8] | Kd [9] | T1/2 [9] | Kd [10] | T1/2 [10] | Kd [11] | T1/2 [11] | Kd [12] | T1/2 [12] |
| --- | --- | --- | --- | --- | --- | --- | --- | --- | --- | --- | --- | --- | --- | --- | --- | --- | --- | --- |
| Control I (Ab) (antibody) | 82.2% | 98.5% | 97.3% |  |  |  |  |  |  |  |  |  |  |  |  |  |  |  |
| B1 |  |  |  | 99.5% | 95.2% | 96.6% | 0.179 nM | 42.7 min | 0.73 nM | 25.7 min | 0.694 nM | 16 min |  |  |  |  |  |  |
| B2 |  |  |  | 98.5% | 97.1% | 83.9% | 0.137 nM | 58.4 min | 1.58 nM | 69.5 min | 5.65 nM | 9.9 min |  |  |  |  |  |  |
| B3 |  |  |  |  |  |  |  |  |  |  |  |  | 0.162 nM | 81 min | 2 nM | 77 min | 5.76 nM | 20 min |
| B4 |  |  |  |  |  |  |  |  |  |  |  |  | 0.234 nM | 62 min | 3.4 nM | 87 min | 0.0971 nM | 90 min |
| B5 |  |  |  | 98.9% | 97.3% | 55% | 0.21 nM | 47 min | 0.842 nM | 36.6 min |  |  |  |  |  |  |  |  |
| B6 |  |  |  |  |  |  |  |  |  |  |  |  | 0.386 nM | 57 min | 0.439 nM | 118 min | 0.529 nM | 51 min |
| B7 |  |  |  |  |  |  |  |  |  |  |  |  | 0.186 nM | 65 min | 0.683 nM | 93 min | 0.276 nM | 58 min |
| B8 |  |  |  |  |  |  |  |  |  |  |  |  | 0.0882 nM | 254 min | 0.0965 nM | 780 min | 0.124 nM | 233 min |
| B9 |  |  |  |  |  |  |  |  |  |  |  |  | 0.164 nM | 127 min | 0.199 nM | 244 min | 0.218 nM | 121 min |
| B10 |  |  |  | 97.7% | 95.8% | 90.9% | 0.484 nM | 35.5 min | 7.33 nM | 24.1 min | 1.7 nM | 21.4 min |  |  |  |  |  |  |
| B11 |  |  |  | 99.6% | 94.1% | 98.6% | 0.295 nM | 38 min | 6.17 nM | 28.5 min | 0.61 nM | 30.8 min |  |  |  |  |  |  |
| B12 |  |  |  | 99.6% | 95.1% | 98.4% | 0.154 nM | 167 min | 0.234 nM | 169 min | 0.882 nM | 195 min |  |  |  |  |  |  |
| B13 |  |  |  | 99.4% | 97.4% | 53.7% | 0.362 nM | 32.2 min | 1.47 nM | 23 min |  |  |  |  |  |  |  |  |
| B14 | 63.6% |  | 73.9% |  |  |  |  |  |  |  |  |  | 0.5 nM | 37.1 min | 1.17 nM | 17.6 min | 0.446 nM | 63.7 min |

From US20130129722A1
